Results published in patent publication US20250154277A1 (CONCEPT TO MEDICINE BIOTECH, published 2025).
Where a chain is given by its changes, count along the chain named. Numbers in names are those of the source.

T1: cynomolgus 5T4 protein (cynomolgus monkey, UniProt Q4R8Y9 35-355, limits assumed)
T1 construct: Coated protein in ELISA; the screening step names a cyno 5T4-His protein; also called cyno 5T4; recombinant cyno 5T4-His protein
T1 sequence (looked up): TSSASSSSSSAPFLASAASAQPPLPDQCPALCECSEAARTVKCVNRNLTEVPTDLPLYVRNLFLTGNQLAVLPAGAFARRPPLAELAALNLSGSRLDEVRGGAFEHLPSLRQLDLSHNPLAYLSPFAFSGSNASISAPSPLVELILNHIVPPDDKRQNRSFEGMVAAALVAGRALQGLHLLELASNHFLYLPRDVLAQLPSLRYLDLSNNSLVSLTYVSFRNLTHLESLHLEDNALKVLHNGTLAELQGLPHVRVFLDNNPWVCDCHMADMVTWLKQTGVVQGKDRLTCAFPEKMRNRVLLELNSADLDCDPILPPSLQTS

T2: human 5T4-His protein (human, UniProt Q13641 32-355)
T2 construct: also called recombinant 5T4 protein (human 5T4-his tag); human 5T4 protein; not shown: His tag
T2 sequence (looked up): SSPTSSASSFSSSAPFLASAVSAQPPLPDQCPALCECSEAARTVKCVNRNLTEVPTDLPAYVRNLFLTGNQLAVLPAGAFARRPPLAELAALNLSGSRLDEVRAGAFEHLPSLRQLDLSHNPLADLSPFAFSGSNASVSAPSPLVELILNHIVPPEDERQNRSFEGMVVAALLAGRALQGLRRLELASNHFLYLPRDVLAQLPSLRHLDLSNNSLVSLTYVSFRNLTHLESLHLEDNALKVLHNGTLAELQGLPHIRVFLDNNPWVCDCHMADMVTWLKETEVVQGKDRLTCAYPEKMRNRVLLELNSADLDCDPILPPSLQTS

B1: 389G2 chimeric antibody (antibody, V domains shown)
VH: QVQLQQPGTELVKPGASVKLSCKASGYTFTSYWMHWVKQRPEQGLEWIGNINPSNGNTNYNERFKSKATLTVDKSSSTAYMQLSSLTSEDSTVYYCARGGWDFDYWGQGTTLTVSS
VL: QVVLTQSPAIMSASPGEKVTMTCSASSSVRYIHWYQQRSGTSPKRWIYDTSKLTSGVPVRFSGSGSGTSFSLTISSMEAEDAATYYCQQWTSKPPWTFGGGTKLEIK
notes: chimeric mAb
B2: 493E10 chimeric antibody (antibody, V domains shown)
VH: DVQLVESGGGLVQPGGSRKLSCAASGFTFSSFGMHWVRQAPEKGLEWVAYISSGSSTIYYADTVKGRFTISRDNPKNTLFLQMTSLRSEDTAMYYCARNRAYHREAMDYWGQGTSVTVSS
VL: DIVLTQSPASLTVSLGQRATISCRASQSVSSSSYNYMHWYQQKPGQPPKLLIKSASNLESGVPARFSGSGSGTDFTLNIHPVEEEDTATYYCQHSWEIPYTFGGGTKLEIK
notes: chimeric mAb
B3: 109H7 chimeric antibody (antibody, V domains shown)
VH: QVQLQQSGAELMKPGASVKLSCKATGYTFTGYWIEWVKQRPGQGLEWIGETLPGRGSTNYNEKFKGKATFTADTSSNIVYMQLSSLTIEDSAIYYCARGRRDFDYWGQGTTLTVSS
VL: DIQMTQTTSSLSASLGDEVTISCSASQGINNYLNWYQQKPDGTVKLLIYYTSSLHSGVPSRFSGSGSGTDYSLTIINLEPEDIATYYCQQFSKLPFTFGSGTKLEIR
notes: chimeric mAb
B4: 286B4 chimeric antibody (antibody, V domains shown)
VH: DVQLHESGPGLVKPSQSLSLTCSVTGYSITNNYYWNWIRQFPGNNLEWMGYITYDGSNNYNPSLKNRISVTRDTSKNQFFLKLSSVTTEDTATYYCTRGGGQLRFDYWGQGTTLTVSS
VL: SIVMTQTPKFLIVSAGDRVTITCKASQSVSNEVTWYQQKPGQSPKMLIYYASNRYTGVPDRFTGSGYGTDFTFTINTVQAEDLAIYFCQQDYSSPWTFGGGTKLEIK
notes: chimeric mAb; also called 284B4-C
B5: 49C5 chimeric antibody (antibody, V domains shown)
VH: EVQLQQSGPELVKPGASVKISCKASGYTFTDYYMNWVKQSHGKSLEWIGDINPYSGGATNNQKFKGKATLTVDKSSSTAYIELRSLTSEDSAVYFCARGSIYYDSTANYFDYWGQGTTLTVSS
VL: DIQMTQSPASLSASVGETVTITCRASENIYSYLAWYQQKQGKSPQLLVYNAKSLTEGVPSRFSGSRSGTQFSLKINSLQPEDFGSYYCQHHYVTPWTFGGGTKLEIK
notes: chimeric mAb
B6: 119G5 chimeric antibody (antibody, V domains shown)
VH: QVQLQQSGPEVVKPGASVKISCKASGYTFTDYYMNWVKQSRGKSLEWIGDINPNNGGTNYNQKFKGKATLTVDKSSSTAYMELRSLTSEDSAVYYCAKEGPPGAMDYWGQGTSVTVSS
VL: NIVMTQTPKFLLVSAGDRVTITCKASQSVSNHVAWYQQKPGQSPKLLIYYVSNRSIGVPDRFTGSGYGTDFTFTISTVQAEDLAVYFCQQVYSSPFTFGGGTRLEMK
notes: chimeric mAb
B7: 95F10 chimeric antibody (antibody, V domains shown)
VH: B6 VH with K13N, G66D, S77N, D90N
VL: B6 VL with S55Y
notes: chimeric mAb
B8: 85B10 chimeric antibody (antibody, V domains shown)
VH: B6 VH with V11L, D31A, M34V, R41H, K74M
VL: B6 VL with N1S, M4L, T20P, H32N, V51A, R54P, S55Y, I56T, S76T, R103K
notes: chimeric mAb
B9: 159D5-P1 (antibody, V domains shown)
VH: DVQLVESGGGLVQPGGSRKLSCTASGFTFSNFGMHWVRQAPETGLEWVAYISSGSSTFYYADAVKGRFTISRDNPKNTLFLQMTSLRSEDTAMYFCARSPAYYRYGLDYWGQGTTLTVSS
VL: B2 VL with T12A, S33T, Y34F, N35S, A55S
notes: chimeric 159D5 with S62A (DS to DA) in VH CDR2; also called PTM removal antibody of 159D5-P1; 159D5-VH.S62A with 159D5 VL
B10: Hu159D5-2 (antibody, V domains shown)
VH: EVQLVESGGGVVQPGRSLRLSCAASGFTFSNFGMHWVRQAPGKGLEWVAYISSGSSTFYYADSVKGRFTISRDNSKNTLYLQMNSLRAEDTAVYYCARSPAYYRYGLDYWGQGTTVTVSS
VL: DIVMTQTPLSLSVTPGQPASISCRASQSVSSSTFSYMHWYQQKPGQPPQLLIKSSSNLESGVPDRFSGSGSGTDFTLKISRVEAEDVGVYYCQHSWEIPYTFGGGTKVEIK
notes: humanized
B11: Hu159D5-1 (antibody, V domains shown)
VH: B10 VH
VL: B10 VL with K53Y
notes: humanized
B12: Hu159D5-3 (antibody, V domains shown)
VH: B10 VH
VL: B10 VL with M4L
notes: humanized
B13: Hu159D5-7 (antibody, V domains shown)
VH: B10 VH with Y95F
VL: B10 VL with K53Y
notes: humanized

Biological target: T1, cynomolgus 5T4 protein
Experiment: ELISA, coated antigen
Description: (§1) ELISA testing was carried out to evaluate the binding of chimeric antibodies to human and cynomolgus, respectively. The antibody portion of naptumomab (NeoTX) that targets 5T4 (abbreviated as naptumomab in the present disclosure), was generated and used as a benchmark.
(§2) Briefly, microtiter plates were coated with human and cynomolgus 5T4 proteins at […] in PBS, 100 μl/well at 4° C. overnight, then blocked with 150 μl/well of 1% BSA. Serial dilutions of chimeric antibodies were added to each well and incubated for 1 hour at RT. The plates were washed with PBS/Tween and then incubate with mouse-anti-human IgG Fc antibody conjugated with Horse Radish Peroxidase (HRP) for 30 mins at RT. After washing, the plates were developed with TMB substrate and analyzed by spectrophotometer at OD 450 nm. All the 5T4 chimeric mAbs bound to human and cynomolgus 5T4 (FIG. 1-2 and Table 3).

Binder	EC50
B1	0.19 nM
B2	0.25 nM
B3	0.19 nM
B4	0.22 nM
B5	0.18 nM
B6	0.2 nM
B7	0.17 nM
B8	0.17 nM

Biological target: T2, human 5T4-His protein
Experiment: ELISA, coated antigen
Description: as §1, §2

Binder	EC50
B1	0.23 nM
B2	0.28 nM
B3	0.31 nM
B4	0.35 nM
B5	0.6 nM
B6	0.32 nM
B7	0.24 nM
B8	0.34 nM

Biological target: T2, human 5T4-His protein
Experiment: SPR Biacore, Protein A capture
Description: (§3) The binding of the 286B4 humanized antibodies to recombinant 5T4 protein (human 5T4-his tag) was tested with Biacore using a capture method. The mAbs were captured using Protein A chip. A serial dilution of human 5T4-his tag protein was injected over captured antibody for 3 mins at a flow rate of 30 μl/min. The antigen was allowed to dissociate for 280-800 s. All the experiments were carried out on a Biacore T200. Data analysis was carried out using the Biacore T200 evaluation software.

Binder	Kd	koff	kon
B4	1.25 nM	0.000113 s⁻¹	90900 M⁻¹ s⁻¹

Biological target: T2, human 5T4-His protein
Experiment: SPR Biacore, Protein A capture
Remark: another data set of the same source
Description: as §3, with “the chimeric mAbs from these clones against” for “the 286B4 humanized antibodies to”, “for 2-3” for “for 3”, “for 360-1000” for “for 280-800”, “using” for “using the”

Binder	Kd	koff	kon
B1	0.49 nM	0.000138 s⁻¹	282000 M⁻¹ s⁻¹
B2	0.626 nM	0.000402 s⁻¹	642000 M⁻¹ s⁻¹
B3	0.606 nM	0.000391 s⁻¹	645000 M⁻¹ s⁻¹
B4	0.96 nM	6.99e-05 s⁻¹	72800 M⁻¹ s⁻¹
B5	0.62 nM	0.000337 s⁻¹	544000 M⁻¹ s⁻¹
B6	1.22 nM	0.000159 s⁻¹	130000 M⁻¹ s⁻¹
B7	0.337 nM	0.00012 s⁻¹	355000 M⁻¹ s⁻¹
B8	0.792 nM	0.000125 s⁻¹	158000 M⁻¹ s⁻¹

Biological target: T2, human 5T4-His protein
Experiment: SPR Biacore, Protein A capture, 50 nM 5T4-His
Description: as §3, with “159D5” for “286B4”, “50 nM” for “A serial dilution”, “600” for “280-800”

Binder	Kd	koff	kon
B9	0.489 nM	0.000163 s⁻¹	334000 M⁻¹ s⁻¹
B10	0.789 nM	0.000227 s⁻¹	287000 M⁻¹ s⁻¹
B11	3.99 nM	0.000294 s⁻¹	73700 M⁻¹ s⁻¹
B12	1.02 nM	0.00024 s⁻¹	235000 M⁻¹ s⁻¹
B13	1.14 nM	0.000253 s⁻¹	221000 M⁻¹ s⁻¹

Biological target: T2, human 5T4-His protein
Experiment: ELISA, coated 5T4-His
Description: To evaluate the binding activity of 159D5 humanized antibodies to human 5T4, the 159D5 chimeric antibody along with 159D5 humanized mAbs were subjected to ELISA test.
Briefly, microtiter plates were coated with human 5T4-His protein at 1 μg/ml in PBS, 100 μl/well at 4° C. overnight, then blocked with 150 μl/well of 10% BSA. Serial dilutions of antibodies were added to each well and incubated for 1 hour at 37° C. The plates were washed with PBS/Tween and then incubated with Goat Anti-Human IgG-HRP for 30 mins at 37° C. After washing, the plates were developed with TMB substrate and analyzed by spectrophotometer at OD 450 nm. As shown in FIG. 14 and Table 12, most of the humanized antibodies bound to human 5T4 with high activity.

Binder	EC50
B9	0.13 nM
B10	0.12 nM
B11	0.088 nM
B12	0.12 nM
B13	0.097 nM

Biological target: T2, human 5T4-His protein
Experiment: ELISA, coated 5T4-His
Remark: another data set of the same source
Description: To evaluate the binding activity of clones, the 286B4 chimeric antibody along with 286B4 humanized mAbs were subjected to ELISA test.
Briefly, microtiter plates were coated with human 5T4-His protein at 1 μg/ml in PBS, 100 μl/well at 4° C. overnight, then blocked with 150 μl/well of 1% BSA. 4-fold dilutions of tested antibodies starting from 20 nM were added to each well and incubated for 1 hour at 37° C. The plates were washed with PBS/Tween and then incubated with Goat Anti-Human IgG-HRP for 30 mins at 37° C. After washing, the plates were developed with TMB substrate and analyzed by spectrophotometer at OD 450 nm. As shown in FIG. 16 and Table 15, most of the humanized clones bound to human 5T4 with high potency.

Binder	EC50
B4	0.32 nM
